Data as given in article PMC12753876.

Tests used:
[1] = biological target: HsFA1e^R126E in pGBKT7 (BD) (Arabidopsis thaliana) (UniProt Q9SCW5); test: two-hybrid; CRY1 as prey in pGADT7 (AD), HsF as bait in pGBKT7 (BD), co-transformed into yeast Y187; liquid beta-galactosidase assay with CPRG, Miller units; not detected (ND) if OD578 <0.01 after 3 h of color development
[2] = biological target: HsFA3 E188R in pGBKT7 (BD) (Arabidopsis thaliana) (UniProt Q8GYY1); test: as above
[3] = biological target: HsFA3 E188R in pGBKT7 (BD) (UniProt Q8GYY1); test: yeast two-hybrid (beta-galactosidase, Miller units); conditions: n=3; parent: est. 270; read off a plot
HsFA3 E188R in pGBKT7 (BD), sequence (Q8GYY1 whole entry E188R): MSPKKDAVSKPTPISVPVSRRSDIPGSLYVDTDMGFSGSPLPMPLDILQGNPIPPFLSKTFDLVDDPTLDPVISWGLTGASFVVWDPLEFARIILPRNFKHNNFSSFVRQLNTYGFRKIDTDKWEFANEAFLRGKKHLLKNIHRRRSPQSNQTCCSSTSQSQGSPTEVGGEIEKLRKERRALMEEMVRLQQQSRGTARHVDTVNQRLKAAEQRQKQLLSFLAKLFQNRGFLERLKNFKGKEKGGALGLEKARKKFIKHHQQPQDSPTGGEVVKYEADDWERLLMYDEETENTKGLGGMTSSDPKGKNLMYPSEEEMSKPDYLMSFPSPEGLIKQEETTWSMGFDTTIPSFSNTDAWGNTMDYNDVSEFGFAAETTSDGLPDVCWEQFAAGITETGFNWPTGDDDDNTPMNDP

CRY1^(PHR WT) in pGADT7 (AD), sequence (Q43125 1-508): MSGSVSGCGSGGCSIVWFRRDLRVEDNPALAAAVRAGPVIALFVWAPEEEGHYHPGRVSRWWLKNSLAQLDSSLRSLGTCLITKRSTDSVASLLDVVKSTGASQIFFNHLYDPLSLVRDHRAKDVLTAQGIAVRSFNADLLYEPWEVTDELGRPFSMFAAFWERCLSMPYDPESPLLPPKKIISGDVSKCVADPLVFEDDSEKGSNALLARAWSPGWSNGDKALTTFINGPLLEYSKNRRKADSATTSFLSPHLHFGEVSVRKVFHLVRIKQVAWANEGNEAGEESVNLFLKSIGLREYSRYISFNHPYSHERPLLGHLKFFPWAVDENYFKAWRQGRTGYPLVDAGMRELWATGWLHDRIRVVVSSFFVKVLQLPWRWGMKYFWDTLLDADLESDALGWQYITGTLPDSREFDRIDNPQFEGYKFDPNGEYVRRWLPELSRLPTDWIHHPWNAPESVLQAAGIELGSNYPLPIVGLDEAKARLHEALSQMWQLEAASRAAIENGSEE
HsFA1e^R126E in pGBKT7 (BD) (Arabidopsis thaliana), sequence (Q9SCW5 whole entry, stated change not applied): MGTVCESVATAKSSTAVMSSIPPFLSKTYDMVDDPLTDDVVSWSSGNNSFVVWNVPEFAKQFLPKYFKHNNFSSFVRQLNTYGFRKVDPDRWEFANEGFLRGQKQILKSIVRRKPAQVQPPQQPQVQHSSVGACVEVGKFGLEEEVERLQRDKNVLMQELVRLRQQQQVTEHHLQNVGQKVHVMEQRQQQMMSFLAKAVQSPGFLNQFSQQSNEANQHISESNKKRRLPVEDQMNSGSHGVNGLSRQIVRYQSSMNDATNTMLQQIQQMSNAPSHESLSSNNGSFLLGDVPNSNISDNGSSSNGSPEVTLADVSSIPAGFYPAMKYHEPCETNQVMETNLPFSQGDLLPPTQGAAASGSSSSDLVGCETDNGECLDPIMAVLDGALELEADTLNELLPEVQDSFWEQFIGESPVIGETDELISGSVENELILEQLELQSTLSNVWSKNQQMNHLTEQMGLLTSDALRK
HsFA3 E188R in pGBKT7 (BD) (Arabidopsis thaliana), sequence (Q8GYY1 whole entry E188R): as the sequence (Q8GYY1 whole entry E188R) above

Substance: CRY1^(PHR WT) in pGADT7 (AD) (from UniProt Q43125 1-508) (domain or fragment)
- fold increase of Y2H interaction relative to WT [1]: 40 fold
- reduction of Y2H interaction relative to WT [2]: 0.33

Substance: m1; m17 CRY1:R211E; CRY1:R435E; HsFA3:E188R
- response [3]: 300 Miller Units

Substance: m1; m17 CRY1:R211E; HsFA3:E188R
- response [3]: 90 Miller Units

Substance: m1; m17 CRY1:R435E; HsFA3:E188R
- response [3]: 170 Miller Units
